From patent publication US20120219551A1

Legend:
[1] = target: FcγRIIIA, soluble monomeric protein (extracellular region joined to the linker-AVITAG sequence) (human) (UniProt P08637); experiment: yeast display FACS, biotinylated receptor chased with unlabeled receptor
[2] = target: soluble dimeric FcγRIIB-Fc fusion protein (extracellular domain of FcγRIIB fused to hinge-CH2-CH3 of human IgG2) (human) (UniProt P31994); experiment: ELISA of FcγRIIB binding, OD printed beside the sensorgram (Table 15 prints 0.08)
Chain of soluble dimeric FcγRIIB-Fc fusion protein (extracellular domain of FcγRIIB fused to hinge-CH2-CH3 of human IgG2) (human) (P31994 43-217): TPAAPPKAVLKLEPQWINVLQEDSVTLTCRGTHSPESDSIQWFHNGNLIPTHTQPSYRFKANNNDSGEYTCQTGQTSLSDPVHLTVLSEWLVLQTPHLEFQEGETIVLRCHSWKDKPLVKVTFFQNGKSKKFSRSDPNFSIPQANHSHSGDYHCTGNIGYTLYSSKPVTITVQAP

[3] = target: FcγRIIIA on natural killer cells of human donor PBMC (human) (UniProt P08637); experiment: cell-based or functional assay
Chain of FcγRIIIA on natural killer cells of human donor PBMC (human) (P08637 17-254): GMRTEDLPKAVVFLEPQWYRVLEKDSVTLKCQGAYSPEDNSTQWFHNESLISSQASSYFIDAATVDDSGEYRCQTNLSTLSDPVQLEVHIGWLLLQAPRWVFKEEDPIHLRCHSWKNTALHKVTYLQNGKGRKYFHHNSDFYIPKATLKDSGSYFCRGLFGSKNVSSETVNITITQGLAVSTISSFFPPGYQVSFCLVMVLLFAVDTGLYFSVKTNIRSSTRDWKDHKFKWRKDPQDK

[4] = target: soluble dimeric FcγRIIB-Fc fusion protein (extracellular domain of FcγRIIB fused to hinge-CH2-CH3 of human IgG2) (human) (UniProt P31994); experiment: ELISA
[5] = target: soluble monomeric FcγRIIIA (extracellular region of FcγRIIIA joined to the linker-AVITAG sequence) (human) (UniProt P08637); experiment: ELISA
Chain of soluble monomeric FcγRIIIA (extracellular region of FcγRIIIA joined to the linker-AVITAG sequence) (human) (P08637 17-208): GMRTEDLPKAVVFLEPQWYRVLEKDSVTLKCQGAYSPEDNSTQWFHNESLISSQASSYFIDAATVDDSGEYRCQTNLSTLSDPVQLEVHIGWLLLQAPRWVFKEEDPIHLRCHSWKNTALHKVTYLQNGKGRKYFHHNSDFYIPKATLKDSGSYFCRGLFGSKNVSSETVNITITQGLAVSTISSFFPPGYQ

[6] = target: soluble dimeric FcγRIIB-Fc fusion protein (extracellular domain of FcγRIIB fused to hinge-CH2-CH3 of human IgG2) (human) (UniProt P31994); experiment: SPR (BIAcore), Ab captured on BSA-FITC, separate fit 200/800 nM
[7] = target: soluble monomeric FcγRIIIA (extracellular region of FcγRIIIA joined to the linker-AVITAG sequence) (human) (UniProt P08637); experiment: as above
[8] = target: soluble monomeric FcγRIIIA (extracellular region of FcγRIIIA joined to the linker-AVITAG sequence) (human) (UniProt P08637); experiment: BIAcore: FcγRIIIA at 200 nM and 800 nM over ch4-4-20 captured on BSA-FITC; separate fit, average of the two concentrations (Table 14 prints 90)
[9] = target: soluble monomeric FcγRIIIA (extracellular region of FcγRIIIA joined to the linker-AVITAG sequence) (human) (UniProt P08637); experiment: BIAcore: FcγRIIIA at 200 nM and 800 nM over ch4-4-20 captured on BSA-FITC; separate fit, average of the two concentrations (Table 14 prints 0.075)
[10] = target: soluble dimeric FcγRIIB-Fc fusion protein (extracellular domain of FcγRIIB fused to hinge-CH2-CH3 of human IgG2) (human) (UniProt P31994); experiment: BIAcore: FcγRIIB-Fc fusion at two concentrations over ch4-4-20 captured on BSA-FITC; separate fit, average of the two concentrations (Table 15 prints 0.085)

Chain of FcγRIIIA, soluble monomeric protein (extracellular region joined to the linker-AVITAG sequence) (human) (P08637 17-208 F176V limits assumed, form in doubt): as the sequence (P08637 17-208) above, with F160V counted along it

Row | loss of cell staining after 1 minute with unlabeled FcγRIIIA [1] [%] | ELISA, OD [2] [OD] | ELISA, OD [4] [OD] | ELISA, OD [5] [OD] | Kd [6] [nM] | koff [6] [s⁻¹] | Kd [7] [nM] | koff [7] [s⁻¹] | kon [7] [M⁻¹ s⁻¹] | Kd [8] [nM] | koff [9] [s⁻¹] | koff [10] [s⁻¹] | Substance | ADCC, % [3] [%]
1 | 50 | – | – | – | – | – | – | – | – | – | – | – | Fc variant P396L (from UniProt P01857 1-330) (antibody) | –
2 | – | 0.1 | 0.08 | 0.37 | 82.3 | 0.1 | 90 | 0.075 | 822000 | 91.8 | 0.073 | – | ch4-4-20 Mut11 (R255L, F243L) (antibody) | 32
3 | – | – | 0.4 | 0.5 | 61.4 | 0.085 | 319 | – | – | – | – | 0.0847 | ch4-4-20 wild type (chimeric anti-fluorescein antibody, IgG1) | 17.5
